These are literature values, as cited in patent US10463717B2, “Compositions in the form of an injectable aqueous solution comprising amylin, an amylin receptor agonist or an amylin analog, and a co-polyamino acid” (ADOCIA, priority 2016, dated 2019).

Read-outs that look alike come from different tables or passages of the source. No end group written: not given here.

As for `CC[C@H](C)[C@H](NC(=O)[C@@H]1CCCN1C(=O)CNC(=O)[C@H](Cc1ccccc1)NC(=O)[C@H](CC(N)=O)NC(=O)[C@H](CC(N)=O)NC(=O)[C@H](CO)NC(=O)[C@H](CO)NC(=O)[C@H](Cc1c[nH]cn1)NC(=O)[C@@H](NC(=O)[C@H](CC(C)C)NC(=O)[C@H](Cc1ccccc1)NC(=O)[C@H](CC(N)=O)NC(=O)[C@H](C)NC(=O)[C@H](CC(C)C)NC(=O)[C@H](CCCNC(=N)N)NC(=O)[C@H](CCC(N)=O)NC(=O)[C@@H](NC(=O)[C@H](C)NC(=O)[C@@H]1CSSC[C@H](NC(=O)[C@@H](N)CCCCN)C(=O)N[C@@H](CC(N)=O)C(=O)N[C@@H]([C@@H](C)O)C(=O)N[C@@H](C)C(=O)N[C@@H]([C@@H](C)O)C(=O)N1)[C@@H](C)O)C(C)C)C(=O)N[C@@H](CC(C)C)C(=O)N1CCC[C@H]1C(=O)N1CCC[C@H]1C(=O)N[C@H](C(=O)N[C@@H](CC(N)=O)C(=O)N[C@H](C(=O)NCC(=O)N[C@@H](CO)C(=O)N[C@@H](CC(N)=O)C(=O)N[C@H](C(=O)N[C@@H](Cc1ccc(O)cc1)C(N)=O)[C@@H](C)O)C(C)C)[C@@H](C)O` [pramlintide, reference compound], the “pH of the solution above which fibrils form” value (described for the marketed peptide) was “higher than 5.5”. As for “amylin: 37 aminoacids peptide which is co-stored and co-secreted with insulin (KCNTATCATQRLANFLVHSSNNFGAILSSTNVGSNTY; not fully specified (C-terminus, bridges); cysteine pairing not given here; UniProt P10997 34-70, looked up)”, the “Stability of amylin in solution” value is, setting by setting: (acidic pH) “about fifteen minutes”; (neutral pH) “less than a minute”.
